Source: US20250230251A1 (Bristol-Myers Squibb, published 2025)
One block for each binder: values may come before it.

What was measured:
[1] = target: T1, huIL-18Rβ-HisAvi (human, UniProt O95256 20-356, biotinylated in the Octet blocking assay); experiment: SPR T200, pH 7.4; sample stored at pH 6, 4 w 4C
T1 construct: Soluble analyte in all SPR runs; captured on streptavidin sensors in the Octet assay; also called human IL-18Rβ; human IL-18Rβ-Avi-His
T1 sequence: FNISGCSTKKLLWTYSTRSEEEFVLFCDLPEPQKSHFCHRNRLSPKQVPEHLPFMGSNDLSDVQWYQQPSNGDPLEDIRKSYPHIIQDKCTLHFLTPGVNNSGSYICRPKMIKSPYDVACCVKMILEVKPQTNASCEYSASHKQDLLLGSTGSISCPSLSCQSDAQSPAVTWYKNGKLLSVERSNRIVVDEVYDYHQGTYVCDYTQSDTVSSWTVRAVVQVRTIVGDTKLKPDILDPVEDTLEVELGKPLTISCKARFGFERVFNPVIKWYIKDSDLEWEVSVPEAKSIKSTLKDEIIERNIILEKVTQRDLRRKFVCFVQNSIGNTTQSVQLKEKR

[2] = target: T2, cyIL-18Rβ-HisAvi (cynomolgus monkey); experiment: SPR screen, 1:1 fit
T2 construct: Soluble analyte in SPR; also called cyno IL-18Rβ; cynomolgus monkey IL-18Rβ
T2 chain: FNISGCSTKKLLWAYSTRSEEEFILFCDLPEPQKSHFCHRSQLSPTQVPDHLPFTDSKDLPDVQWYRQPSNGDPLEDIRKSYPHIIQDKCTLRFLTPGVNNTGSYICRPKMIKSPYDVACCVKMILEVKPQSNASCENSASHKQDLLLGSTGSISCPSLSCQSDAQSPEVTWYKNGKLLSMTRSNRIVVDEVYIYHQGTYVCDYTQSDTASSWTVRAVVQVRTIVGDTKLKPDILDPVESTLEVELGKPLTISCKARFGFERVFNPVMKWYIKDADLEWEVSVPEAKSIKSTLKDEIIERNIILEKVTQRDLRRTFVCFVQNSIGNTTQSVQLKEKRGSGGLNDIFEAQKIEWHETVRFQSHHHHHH

[3] = target: T3, human IL-18Rβ on cells (human, UniProt O95256 20-599); experiment: cell-based or functional assay
T3 sequence: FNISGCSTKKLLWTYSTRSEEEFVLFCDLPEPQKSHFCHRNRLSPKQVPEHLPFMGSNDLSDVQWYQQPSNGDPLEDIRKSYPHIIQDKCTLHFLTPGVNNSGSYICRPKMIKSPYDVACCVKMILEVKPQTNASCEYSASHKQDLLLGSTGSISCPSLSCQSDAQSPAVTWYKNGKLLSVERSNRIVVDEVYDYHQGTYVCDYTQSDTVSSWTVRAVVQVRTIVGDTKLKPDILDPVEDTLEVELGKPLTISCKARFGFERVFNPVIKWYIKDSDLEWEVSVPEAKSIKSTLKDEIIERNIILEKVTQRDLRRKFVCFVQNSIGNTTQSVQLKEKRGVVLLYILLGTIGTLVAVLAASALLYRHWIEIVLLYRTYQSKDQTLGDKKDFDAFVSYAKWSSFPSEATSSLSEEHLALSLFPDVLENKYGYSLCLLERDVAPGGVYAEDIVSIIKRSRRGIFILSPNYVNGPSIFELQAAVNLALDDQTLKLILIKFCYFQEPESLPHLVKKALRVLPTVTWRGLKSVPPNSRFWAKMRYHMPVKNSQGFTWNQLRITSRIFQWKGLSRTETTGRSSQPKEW

[4] = target: T1, huIL-18Rβ-HisAvi; experiment: SPR T200, pH 7.4; sample stored at pH 6, 4 w 40C
[5] = target: T1, huIL-18Rβ-HisAvi; experiment: SPR T200, mAb on anti-hFc, 37C, pH 6
[6] = target: T2, cyIL-18Rβ-HisAvi; experiment: SPR T200, mAb on anti-hFc, 37C, pH 6
[7] = target: T1, huIL-18Rβ-HisAvi; experiment: SPR T200, pH 7.4; sample stored at pH 8, T0
[8] = target: T1, huIL-18Rβ-HisAvi; experiment: SPR T200, pH 7.4; sample stored at pH 8, 4 w 40C
[9] = target: T3, human IL-18Rβ on cells; experiment: cell-based or functional assay; remark: listed apart in the source
[10] = target: T3, human IL-18Rβ on cells; experiment: cell-based or functional assay; remark: listed apart in the source
[11] = target: T3, human IL-18Rβ on cells; experiment: cell-based or functional assay; remark: listed apart in the source
[12] = target: T1, huIL-18Rβ-HisAvi; experiment: SPR T200, pH 7; sample 2 w 40C
[13] = target: T1, huIL-18Rβ-HisAvi; experiment: SPR T200, pH 7; sample T0

Kd [1]: 1.4 nM | koff [1]: 0.00038 s⁻¹ | kon [1]: 260000 M⁻¹ s⁻¹ | Kd [2]: 18 nM | IC50, LPS+IL-12 dependent IFNg production, human whole blood [3]: 1.34 nM | Kd [4]: 5.6 nM | koff [4]: 0.0013 s⁻¹ | kon [4]: 230000 M⁻¹ s⁻¹ | Kd [5]: 0.65 nM | koff [5]: 0.00031 s⁻¹ | kon [5]: 480000 M⁻¹ s⁻¹ | Kd [6]: 11 nM | koff [6]: 0.002 s⁻¹ | kon [6]: 180000 M⁻¹ s⁻¹ | Kd [7]: 1.5 nM | koff [7]: 0.00037 s⁻¹ | kon [7]: 250000 M⁻¹ s⁻¹ | Kd [8]: 1.9 nM | koff [8]: 0.0005 s⁻¹ | kon [8]: 260000 M⁻¹ s⁻¹ | IC50, IL-18-induced IFNγ release, KG-1 cells [9]: 0.7 nM
B1: P21 (antibody, human IgG1, kappa, V domains shown)
VH: QVQLQQSGPGLVKPSETLSLTCTVSGGSISNYYWTWIRQPPGKGLEWIGYISDSGSTNYNPSLKSRVTISVDTSKNQFSLKLSSVTAADTAVYYCARETIVVRGFYFYVMDVWGQGTTVTVSS
VL: AIQLTQSPSSLSASVGDRVTITCRASQGISSALAWYQQRPGKAPKLLIYDASNWESGVPSRFSGSGSGTDFTLTISSLQPEDFATYYCQQFNSYPWTFGQGTKVEIKR
notes: Human IgG

apparent Kd (pooled screen) [1]: 1.5 nM | apparent koff (pooled screen) [1]: 0.00036 s⁻¹ | apparent kon (pooled screen) [1]: 240000 M⁻¹ s⁻¹ | Kd [2]: 3.8 nM | IC50, LPS+IL-12 dependent IFNg production, human whole blood [3]: 1.66 nM | apparent Kd (pooled screen) [4]: 1.3 nM | apparent koff (pooled screen) [4]: 0.00039 s⁻¹ | apparent kon (pooled screen) [4]: 300000 M⁻¹ s⁻¹ | apparent Kd (pooled screen) [5]: 0.43 nM | apparent koff (pooled screen) [5]: 0.00016 s⁻¹ | apparent kon (pooled screen) [5]: 380000 M⁻¹ s⁻¹ | Kd [6]: 1.6 nM | koff [6]: 0.00028 s⁻¹ | kon [6]: 180000 M⁻¹ s⁻¹ | apparent Kd (pooled screen) [7]: 1.6 nM | apparent koff (pooled screen) [7]: 0.00035 s⁻¹ | apparent kon (pooled screen) [7]: 220000 M⁻¹ s⁻¹ | apparent Kd (pooled screen) [8]: 1.6 nM | apparent koff (pooled screen) [8]: 0.00038 s⁻¹ | apparent kon (pooled screen) [8]: 240000 M⁻¹ s⁻¹ | IC50, IL-18-induced IFNγ release, KG-1 cells [9]: 0.2 nM
B2: P20 (antibody, human IgG1, kappa)
heavy: QVQLQQSGPGLVKPSETLSLTCTVSGGSINNYYWSWIRQPPGKGLEWIGYIFYSGTTNYNPSLKSRVTISVDTSKNQFSLKLSSVTAADTAVYYCARDVGIAARNSYYYVMDVWGQGTTVTVSSASTKGPSVFPLAPSSKSTSGGTAALGCLVKDYFPEPVTVSWNSGALTSGVHTFPAVLQSSGLYSLSSVVTVPSSSLGTQTYICNVNHKPSNTKVDKRVEPKSCDKTHTCPPCPAPEAEGAPSVFLFPPKPKDTLMISRTPEVTCVVVDVSHEDPEVKFNWYVDGVEVHNAKTKPREEQYNSTYRVVSVLTVLHQDWLNGKEYKCKVSNKALPAPIEKTISKAKGQPREPQVYTLPPSREEMTKNQVSLTCLVKGFYPSDIAVEWESNGQPENNYKTTPPVLDSDGSFFLYSKLTVDKSRWQQGNVFSCSVMHEALHNHYTQKSLSLSPG
light: AIQLTQSPSSLSASVGDRVTITCRASQGISSALAWYQQKPGKAPKFLIYDASSLESGVPSRFSGSGSGTDFTLTISSLQPEDFATYYCQQFNSYPITFGQGTRLEIKRTVAAPSVFIFPPSDEQLKSGTASVVCLLNNFYPREAKVQWKVDNALQSGNSQESVTEQDSKDSTYSLSSTLTLSKADYEKHKVYACEVTHQGLSSPVTKSFNRGEC
notes: Human IgG

IC50, IL-18-mediated IFNg release, KG-1 cells, Average [10]: 2.01 nM | IC50, IL-18-mediated IFNg release, KG-1 cells, Exp. #1 [10]: 0.96 nM | IC50, IL-18-mediated IFNg release, KG-1 cells, Exp. #2 [10]: 2.1 nM | IC50, IL-18-mediated IFNg release, KG-1 cells, Exp. #3 [10]: 1.46 nM | IC50, IL-18-mediated IFNg release, KG-1 cells, Exp. #4 [10]: 1.2 nM | IC50, IL-18-mediated IFNg release, KG-1 cells, Exp. #5 [10]: 2.94 nM | IC50, IL-18-mediated IFNg release, KG-1 cells, Exp. #6 [10]: 2.8 nM | IC50, IL-18-mediated IFNg release, KG-1 cells, Exp. #7 [10]: 2.6 nM | IC50, IFNg, human whole blood IL-18+IL-12, Average [11]: 2.28 nM | IC50, IFNg, human whole blood IL-18+IL-12, donor C121 [11]: 3.6 nM | IC50, IFNg, human whole blood IL-18+IL-12, donor C121 (second row) [11]: 1.3 nM | IC50, IFNg, human whole blood IL-18+IL-12, donor C175 [11]: 0.5 nM | IC50, IFNg, human whole blood IL-18+IL-12, donor C237 [11]: 2.74 nM | IC50, IFNg, human whole blood IL-18+IL-12, donor C238 [11]: 1.35 nM | IC50, IFNg, human whole blood IL-18+IL-12, donor C249 [11]: 4.29 nM | IC50, IFNg, human whole blood IL-18+IL-12, donor C252 [11]: 3.23 nM | IC50, IFNg, human whole blood IL-18+IL-12, donor C253 [11]: 1.24 nM | Kd [12]: 0.13 nM | koff [12]: 3.7e-05 s⁻¹ | kon [12]: 290000 M⁻¹ s⁻¹ | Kd [13]: 0.27 nM | koff [13]: 7.2e-05 s⁻¹ | kon [13]: 270000 M⁻¹ s⁻¹
B3: P20-V1 (antibody, human IgG1, kappa, V domains shown)
VH: QVQLQESGPGLVKPSETLSLTCTVSGGSINNYYWSWIRQPPGKGLEWIGYIFYSGTTNYNPSLKSRVTISVDTSKNQFSLKLSSVTAADTAVYYCARDVGIAARNSYYYVMDVWGQGTTVTVSS
VL: AIQLTQSPSSLSASVGDRVTITCRASQGISSALAWYQQKPGKAPKFLIYEASSLESGVPSRFSGSGSGTDFTLTISSLQPEDFATYYCQQFNSYPITFGQGTRLEIKR
notes: Variant of P20
